Among the data in patent publication US20220098304A1 (JIANGSU HENGRUI MEDICINE, published 2022) are Kd, koff and kon values, retold here.

In this experiment the target is T1, Human PD-1-His protein (Cat. #10377H08H, Sino Biological) (human, UniProt Q15116 25-167).
T1 construct: Bought protein; also called hPD-1-His; hu PD-1-his; not shown: His tag of the bought protein
In words: SPR (Biacore), antibody captured on Protein A chip, PD-1 in flow. The text has this: IgG was affinity captured by using a Protein A biosensor chip (Cat. #29127556, GE). Human PD-1 antigen (Cat. #10377H08H, Sino Biological) and Cyno PD-1 antigen (purchased from Sino Biological) flowed across the surface of the chip, and the binding and dissociation curves were obtained by real time detection of PD-1 antibody and antigen PD-1 reaction signals by a Biacore T200 instrument. After the dissociation of each experimental cycle was completed, the biosensor chip was washed and regenerated with 10 mM Glycine-HCl pH 1.5 buffer. The experimental buffer system was 1×HBS-EP buffer solution (Cat #BR-1001-88, GE). After the experiment, GE Biacore T200 Evaluation version 3.0 software was used to fit the data with a (1:1) Langmuir model, and the affinity value was obtained.

T1 sequence (Q15116 25-167 limits assumed): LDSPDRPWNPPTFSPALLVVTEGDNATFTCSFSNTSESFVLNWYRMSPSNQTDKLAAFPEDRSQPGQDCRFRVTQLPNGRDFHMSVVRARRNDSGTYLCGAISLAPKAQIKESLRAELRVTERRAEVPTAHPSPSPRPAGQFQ

B1: Hu23-1.IgG4AA (antibody)
heavy: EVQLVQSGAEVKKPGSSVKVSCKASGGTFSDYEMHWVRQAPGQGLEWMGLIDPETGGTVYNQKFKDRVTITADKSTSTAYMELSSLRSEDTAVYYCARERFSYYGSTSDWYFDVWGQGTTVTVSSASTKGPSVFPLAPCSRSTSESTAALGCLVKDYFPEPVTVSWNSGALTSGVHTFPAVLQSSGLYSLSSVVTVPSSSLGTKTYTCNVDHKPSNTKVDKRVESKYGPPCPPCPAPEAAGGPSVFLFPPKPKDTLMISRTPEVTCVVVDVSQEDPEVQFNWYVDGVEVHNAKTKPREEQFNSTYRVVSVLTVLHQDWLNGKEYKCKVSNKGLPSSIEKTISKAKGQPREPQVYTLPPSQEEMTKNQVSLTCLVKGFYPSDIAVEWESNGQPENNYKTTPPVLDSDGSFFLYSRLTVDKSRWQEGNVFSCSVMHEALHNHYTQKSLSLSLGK
light: DIVMTQTPLSLPVTPGEPASISCRSSQSLVHSNGNTYLEWYLQKPGQSPQLLIYKVSNRFSGVPDRFSGSGSGTDFTLKISRVEAEDVGVYYCFQGSHVPYTFGGGTKVEIKRTVAAPSVFIFPPSDEQLKSGTASVVCLLNNFYPREAKVQWKVDNALQSGNSQESVTEQDSKDSTYSLSSTLTLSKADYEKHKVYACEVTHQGLSSPVTKSFNRGEC
notes: Full-length IgG4-AA (S228P, F234A, L235A), kappa
For the molecule B1, the affinity, expressed as Kd, was 3.2 nM; the koff was determined as 0.00011 s⁻¹; the on-rate (kon) was determined as 34300 M⁻¹ s⁻¹.

B2: Hu23-4.IgG4AA (antibody)
heavy: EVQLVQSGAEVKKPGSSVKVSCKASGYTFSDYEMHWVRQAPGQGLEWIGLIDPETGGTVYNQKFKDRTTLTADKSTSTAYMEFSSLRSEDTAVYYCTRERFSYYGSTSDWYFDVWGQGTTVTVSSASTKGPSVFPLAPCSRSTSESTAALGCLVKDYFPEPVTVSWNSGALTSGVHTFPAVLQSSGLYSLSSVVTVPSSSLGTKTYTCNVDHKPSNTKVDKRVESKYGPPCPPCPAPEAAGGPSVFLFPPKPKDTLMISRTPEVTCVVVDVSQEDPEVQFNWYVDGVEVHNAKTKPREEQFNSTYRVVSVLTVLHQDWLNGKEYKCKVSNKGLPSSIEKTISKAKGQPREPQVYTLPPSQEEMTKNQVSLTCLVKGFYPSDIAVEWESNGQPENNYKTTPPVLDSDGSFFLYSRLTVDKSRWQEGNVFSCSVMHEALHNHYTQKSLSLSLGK
light: DIVMTQTPLSLPVTPGEPASISCRSSQSLVHSNGNTYLEWYLQKPGQSPQLLIYKVSNRFSGVPDRFSGSGSGTDFTLKISRVEAEDVGVYYCFQGSHVPYTFGGGTKVEIKRTVAAPSVFIFPPSDEQLKSGTASVVCLLNNFYPREAKVQWKVDNALQSGNSQESVTEQDSKDSTYSLSSTLTLSKADYEKHKVYACEVTHQGLSSPVTKSFNRGEC
notes: Full-length IgG4-AA, kappa
In turn, B2 showed a Kd of 3.39 nM, a koff of 0.000144 s⁻¹ and a kon of 42400 M⁻¹ s⁻¹.

B3: Hu23-3.IgG4AA (antibody)
heavy: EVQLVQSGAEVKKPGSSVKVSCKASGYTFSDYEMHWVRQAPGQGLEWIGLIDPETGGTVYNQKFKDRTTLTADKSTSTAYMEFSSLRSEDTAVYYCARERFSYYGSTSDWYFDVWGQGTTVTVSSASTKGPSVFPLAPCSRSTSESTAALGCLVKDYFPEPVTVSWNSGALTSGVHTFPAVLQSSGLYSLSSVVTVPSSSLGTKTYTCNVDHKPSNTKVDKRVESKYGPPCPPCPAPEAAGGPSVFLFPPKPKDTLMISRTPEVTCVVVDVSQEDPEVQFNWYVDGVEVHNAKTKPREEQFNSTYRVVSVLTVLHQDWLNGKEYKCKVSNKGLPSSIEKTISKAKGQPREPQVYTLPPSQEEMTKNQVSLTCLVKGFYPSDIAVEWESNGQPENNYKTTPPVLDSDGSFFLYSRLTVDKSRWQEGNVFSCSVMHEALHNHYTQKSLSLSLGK
light: DIVMTQTPLSLPVTPGEPASISCRSSQSLVHSNGNTYLEWYLQKPGQSPQLLIYKVSNRFSGVPDRFSGSGSGTDFTLKISRVEAEDVGVYYCFQGSHVPYTFGGGTKVEIKRTVAAPSVFIFPPSDEQLKSGTASVVCLLNNFYPREAKVQWKVDNALQSGNSQESVTEQDSKDSTYSLSSTLTLSKADYEKHKVYACEVTHQGLSSPVTKSFNRGEC
notes: Full-length IgG4-AA, kappa
B3: the Kd was 5.46 nM, the off-rate constant (koff) worked out at 0.00016 s⁻¹ and the association rate constant (kon) amounted to 29300 M⁻¹ s⁻¹.

B4: Hu23-5.IgG4AA (antibody)
heavy: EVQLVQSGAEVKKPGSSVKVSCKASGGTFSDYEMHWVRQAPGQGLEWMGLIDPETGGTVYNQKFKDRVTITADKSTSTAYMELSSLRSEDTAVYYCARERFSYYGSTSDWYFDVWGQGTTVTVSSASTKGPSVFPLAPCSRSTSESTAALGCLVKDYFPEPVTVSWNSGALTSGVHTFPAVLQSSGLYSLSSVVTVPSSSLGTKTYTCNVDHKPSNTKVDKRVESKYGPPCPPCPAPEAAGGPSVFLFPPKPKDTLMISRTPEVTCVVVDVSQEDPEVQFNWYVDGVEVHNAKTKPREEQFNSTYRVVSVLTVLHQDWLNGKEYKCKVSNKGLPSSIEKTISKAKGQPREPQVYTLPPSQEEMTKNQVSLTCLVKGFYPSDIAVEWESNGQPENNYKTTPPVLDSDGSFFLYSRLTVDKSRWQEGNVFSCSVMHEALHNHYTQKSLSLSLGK
light: DGVMTQTPLSLPVTPGEPASISCRSSQSLVHSNGNTYLEWYLQKPGQSPQLLIYKVSNRFSGVPDRFSGSGSGTDFTLKISRVEAEDVGVYYCFQGSHVPYTFGGGTKVEIKRTVAAPSVFIFPPSDEQLKSGTASVVCLLNNFYPREAKVQWKVDNALQSGNSQESVTEQDSKDSTYSLSSTLTLSKADYEKHKVYACEVTHQGLSSPVTKSFNRGEC
notes: Full-length IgG4-AA, kappa
The molecule B4 came in with a Kd of 3.82 nM, a koff of 0.000114 s⁻¹ and a kon of 29900 M⁻¹ s⁻¹.

B5: Hu23-6.IgG4AA (antibody)
heavy: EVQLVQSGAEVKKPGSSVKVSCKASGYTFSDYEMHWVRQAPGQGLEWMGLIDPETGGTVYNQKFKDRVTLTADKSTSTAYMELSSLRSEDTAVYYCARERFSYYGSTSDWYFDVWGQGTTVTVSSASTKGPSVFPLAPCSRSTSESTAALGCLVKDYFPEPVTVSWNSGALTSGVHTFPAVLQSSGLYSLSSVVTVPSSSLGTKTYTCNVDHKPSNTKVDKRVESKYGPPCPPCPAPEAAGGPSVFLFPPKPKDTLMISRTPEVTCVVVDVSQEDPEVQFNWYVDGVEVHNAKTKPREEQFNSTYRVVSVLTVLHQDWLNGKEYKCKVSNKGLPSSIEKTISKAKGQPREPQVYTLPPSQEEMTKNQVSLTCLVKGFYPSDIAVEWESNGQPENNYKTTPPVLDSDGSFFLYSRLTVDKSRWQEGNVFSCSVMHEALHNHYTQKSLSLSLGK
light: DGVMTQTPLSLPVTPGEPASISCRSSQSLVHSNGNTYLEWYLQKPGQSPQLLIYKVSNRFSGVPDRFSGSGSGTDFTLKISRVEAEDVGVYYCFQGSHVPYTFGGGTKVEIKRTVAAPSVFIFPPSDEQLKSGTASVVCLLNNFYPREAKVQWKVDNALQSGNSQESVTEQDSKDSTYSLSSTLTLSKADYEKHKVYACEVTHQGLSSPVTKSFNRGEC
notes: Full-length IgG4-AA, kappa
As to B5, the dissociation constant Kd is 5.57 nM, the off-rate (koff) amounted to 0.000155 s⁻¹ and the on-rate (kon) was found to be 27900 M⁻¹ s⁻¹.

B6: Hu23-2.IgG4AA (antibody)
heavy: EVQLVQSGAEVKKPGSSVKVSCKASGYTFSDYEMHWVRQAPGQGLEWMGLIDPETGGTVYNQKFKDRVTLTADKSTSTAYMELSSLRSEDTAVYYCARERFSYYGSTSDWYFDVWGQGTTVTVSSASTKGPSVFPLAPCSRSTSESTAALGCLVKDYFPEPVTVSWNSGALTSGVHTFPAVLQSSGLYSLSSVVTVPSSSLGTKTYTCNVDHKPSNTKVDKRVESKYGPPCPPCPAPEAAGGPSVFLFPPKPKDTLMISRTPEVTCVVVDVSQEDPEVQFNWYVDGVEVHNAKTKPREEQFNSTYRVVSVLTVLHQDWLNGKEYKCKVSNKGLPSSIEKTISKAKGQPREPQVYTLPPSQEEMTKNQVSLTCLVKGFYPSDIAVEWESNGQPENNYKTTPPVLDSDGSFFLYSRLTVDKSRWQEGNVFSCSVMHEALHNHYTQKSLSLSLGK
light: DIVMTQTPLSLPVTPGEPASISCRSSQSLVHSNGNTYLEWYLQKPGQSPQLLIYKVSNRFSGVPDRFSGSGSGTDFTLKISRVEAEDVGVYYCFQGSHVPYTFGGGTKVEIKRTVAAPSVFIFPPSDEQLKSGTASVVCLLNNFYPREAKVQWKVDNALQSGNSQESVTEQDSKDSTYSLSSTLTLSKADYEKHKVYACEVTHQGLSSPVTKSFNRGEC
notes: Full-length IgG4-AA, kappa
B6 had a Kd of 5.86 nM, an off-rate (koff) of 0.000161 s⁻¹ and an on-rate constant (kon) of 27400 M⁻¹ s⁻¹.

B7: murine antibody M23 (antibody, V domains shown)
VH: QVQLQQSGAELVRPGASVTLSCKASGYTFTDYEMHWVKQTPIHGLEWIGLIDPETGGTVYNQKFKDKTILTADKSSSTAYMEFRSLTSEDSAVYHCTRERFSYYGSTSDWYFDVWGTGTTVTVSS
VL: DGLMTQTPLSLPVSLGDHASISCRSSQSLVHSNGNTYLEWYLQKPGQSPKLLIYKVSNRFSGVPDRFSGSGSGTDFTLKISRVEAEDLGIYYCFQGSHVPYTFGGGTKLEIK
B7 displayed a Kd of 2.89 nM, a koff of 0.000132 s⁻¹ and an on-rate (kon) of 45700 M⁻¹ s⁻¹.
